Assay results: patent publication US20170014527A1

Key:
[1] = target: human Trop-2 (human) (UniProt P09758); experiment: cell binding on NCI-N87 cells, anti-mouse-HRP, luminescence
[2] = target: human Trop-2 (human) (UniProt P09758); experiment: cell binding on NCI-N87 cells, Bmax against murine RS7 as reference
[3] = target: human Trop-2 (human) (UniProt P09758); experiment: cell binding on NCI-N87 cells, 0.03 to 66 nM antibody, anti-mouse-HRP, luminescence
[4] = target: human Trop-2 (human) (UniProt P09758); experiment: cell binding assay, cell line not stated
[5] = target: human Trop-2 (human) (UniProt P09758); experiment: cell-based or functional assay

Chain of human Trop-2 (human) (P09758 27-323): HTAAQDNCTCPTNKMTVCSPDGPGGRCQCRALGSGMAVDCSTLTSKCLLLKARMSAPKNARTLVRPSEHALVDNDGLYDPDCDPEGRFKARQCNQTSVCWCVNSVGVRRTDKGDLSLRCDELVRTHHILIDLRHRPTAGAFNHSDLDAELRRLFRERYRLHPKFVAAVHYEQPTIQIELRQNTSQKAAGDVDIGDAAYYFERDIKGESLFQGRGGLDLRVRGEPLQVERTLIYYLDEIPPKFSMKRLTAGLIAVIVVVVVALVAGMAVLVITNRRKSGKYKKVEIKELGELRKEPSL

maximum binding (Bmax) (relative luminescent units) [1] | reduction of maximum binding (Bmax) compared to RS7 [2] [%] | Kd [3] [nM] | Kd [4] [nM] | ADCC, specific lysis of BxPC-3 cells by PBMCs (effector to target 100:1, antibody 33.3 nM) [5] [%] | Substance
8470 | 25 | 0.52 | – | – | 162-46.2 murine monoclonal antibody against human Trop-2
6020 | 50 | 0.49 | – | – | MAB650 murine monoclonal antibody against human Trop-2 (R&D Systems)
– | – | – | 1.2 | – | hRS7-CL2-SN-38 (hRS7 IgG conjugated to SN-38 by the CL2 linker) (antibody)
– | – | – | 1.2 | – | hRS7-CL2A-SN-38 (hRS7 IgG conjugated to SN-38 by the CL2A linker) (antibody)
– | – | – | – | 8.5 | humanized RS7 (hRS7) anti-Trop-2 antibody, unconjugated IgG
